Test results as given in the supplement of paper PMC10126150.
± gives the standard deviation of the averaged measurements.

test system: ATP; experiment: switch fluorescence ratio, 500 uM ATP over buffer (Cy3 cluster intensity, sum of 5 cycles each) (fold (ratio)); higher = stronger signal-on switching upon ATP binding; sequences stand for … in TCGTCGGCAGCGTCAGATGTGTATAAGAGACAGTTTTTTTTTTTTTTTTTTTTTTTTT…TC; details: aptamer strand: ATP DNA aptamer (quencher-CACCTGGGGGAGTATTGCGGAGGAAGG + anchor), 100 nM annealed; ATP concentration: 500 uM
Outline: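 Clusters carrying Cy3-labelled switching strands on a modified Illumina MiSeq flow-cell were annealed to 100 nM quencher-labelled ATP aptamer and imaged in selection buffer. They were imaged again after 15 min with 500 uM ATP at 22 °C, over five buffer/ATP cycles with NaOH stripping and re-annealing in between. For each cluster, the fluorescence ratio is the summed Cy3 intensity of the target cycles divided by that of the buffer cycles, averaged per switch-domain sequence. Clusters outside 100-1000 RFU were left out.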
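Further: ATP exposure 15 min at 22 °C before imaging.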

For TGGCCCGGGA, which switch fluorescence ratio is on record?
The switch fluorescence ratio was 0.9878 ± 0.0035.

TGGCCGGGCG was tested. Which switch fluorescence ratio did it give?
Its switch fluorescence ratio is 1.011 ± 0.0026.

With TGGCCTAGG as the sequence, how does the switch fluorescence ratio read?
Its switch fluorescence ratio is 1 ± 0.029.

With TGGCGATTGT as the sequence, how does the switch fluorescence ratio read?
The switch fluorescence ratio was 0.986 ± 0.014.

Which switch fluorescence ratio does the source give for TGGCGCCCTT here?
The switch fluorescence ratio was 1.01 ± 0.012.

For TGGCGGACAG, which switch fluorescence ratio is on record?
The switch fluorescence ratio was 0.99 ± 0.026.

How did the switch fluorescence ratio turn out when TGGCGGTGCT was run?
The switch fluorescence ratio was 0.997 ± 0.028.

With TGGCGTGTTA as the sequence, how does the switch fluorescence ratio read?
The switch fluorescence ratio was 1.02 ± 0.044.

Which switch fluorescence ratio does the source give for TGGCTAAAAT here?
Its switch fluorescence ratio is 0.998 ± 0.023.

How did the switch fluorescence ratio turn out when TGGCTAAGGT was run?
The switch fluorescence ratio was 1.023 ± 0.0017.

How did the switch fluorescence ratio turn out when TGGCTCATAC was run?
Its switch fluorescence ratio is 1.45 ± 0.041.

TGGCTCGGGG was tested. Which switch fluorescence ratio did it give?
Its switch fluorescence ratio is 1.03 ± 0.051.

Which switch fluorescence ratio does the source give for TGGCTGGGTA here?
The switch fluorescence ratio was 0.983 ± 0.043.

For TGGCTTAAAC, which switch fluorescence ratio is on record?
The switch fluorescence ratio was 1.18 ± 0.28.

With TGGCTTACAG as the sequence, how does the switch fluorescence ratio read?
The switch fluorescence ratio was 1.003 ± 0.0022.

For TGGCTTGGCG, which switch fluorescence ratio is on record?
Its switch fluorescence ratio is 1.01 ± 0.072.

Which switch fluorescence ratio does the source give for TGGGAAAAAG here?
The switch fluorescence ratio was 0.972 ± 0.039.

TGGGAAAGCA was tested. Which switch fluorescence ratio did it give?
The switch fluorescence ratio was 1 ± 0.012.

With TGGGAAATCT as the sequence, how does the switch fluorescence ratio read?
Its switch fluorescence ratio is 1.17 ± 0.25.

For TGGGAACCGT, which switch fluorescence ratio is on record?
Its switch fluorescence ratio is 1.18 ± 0.32.

TGGGAAGACA was tested. Which switch fluorescence ratio did it give?
Its switch fluorescence ratio is 1.06 ± 0.092.

Which switch fluorescence ratio does the source give for TGGGAAGATT here?
Its switch fluorescence ratio is 1.028 ± 0.0041.

How did the switch fluorescence ratio turn out when TGGGAAGGCA was run?
Its switch fluorescence ratio is 1 ± 0.025.

With TGGGAAGTCC as the sequence, how does the switch fluorescence ratio read?
The switch fluorescence ratio was 1.001 ± 0.0074.

TGGGAATATG was tested. Which switch fluorescence ratio did it give?
The switch fluorescence ratio was 1 ± 0.036.

With TGGGAATGAC as the sequence, how does the switch fluorescence ratio read?
The switch fluorescence ratio was 2.01 ± 1.4.

Which switch fluorescence ratio does the source give for TGGGACAGTG here?
The switch fluorescence ratio was 0.968 ± 0.058.

TGGGACATGG was tested. Which switch fluorescence ratio did it give?
The switch fluorescence ratio was 0.995 ± 0.031.

How did the switch fluorescence ratio turn out when TGGGACCAGG was run?
Its switch fluorescence ratio is 1.05 ± 0.03.

How did the switch fluorescence ratio turn out when TGGGACGTAC was run?
The switch fluorescence ratio was 1.79 ± 0.15.

With TGGGACTTGG as the sequence, how does the switch fluorescence ratio read?
The switch fluorescence ratio was 1.01 ± 0.018.

Which switch fluorescence ratio does the source give for TGGGACTTTG here?
The switch fluorescence ratio was 1.0328 ± 0.001.

With TGGGAGAGGT as the sequence, how does the switch fluorescence ratio read?
The switch fluorescence ratio was 0.996 ± 0.02.

How did the switch fluorescence ratio turn out when TGGGAGAGTC was run?
The switch fluorescence ratio was 0.989 ± 0.047.

How did the switch fluorescence ratio turn out when TGGGAGGCAA was run?
Its switch fluorescence ratio is 1.16 ± 0.021.

For TGGGAGGGGA, which switch fluorescence ratio is on record?
The switch fluorescence ratio was 1.03 ± 0.035.

For TGGGAGGTTC, which switch fluorescence ratio is on record?
The switch fluorescence ratio was 1.03 ± 0.02.

For TGGGAGTTGG, which switch fluorescence ratio is on record?
Its switch fluorescence ratio is 1.03 ± 0.012.

For TGGGATAAAG, which switch fluorescence ratio is on record?
The switch fluorescence ratio was 0.9923 ± 0.0029.

How did the switch fluorescence ratio turn out when TGGGATATGG was run?
The switch fluorescence ratio was 0.996 ± 0.029.

How did the switch fluorescence ratio turn out when TGGGATCGCT was run?
The switch fluorescence ratio was 1.038 ± 0.0056.

For TGGGATCTGG, which switch fluorescence ratio is on record?
Its switch fluorescence ratio is 0.997 ± 0.037.

How did the switch fluorescence ratio turn out when TGGGATGCAG was run?
Its switch fluorescence ratio is 1.01 ± 0.065.

With TGGGATTATT as the sequence, how does the switch fluorescence ratio read?
The switch fluorescence ratio was 1.02 ± 0.019.

For TGGGATTGGG, which switch fluorescence ratio is on record?
The switch fluorescence ratio was 0.974 ± 0.013.

Which switch fluorescence ratio does the source give for TGGGATTGTT here?
The switch fluorescence ratio was 1 ± 0.035.

For TGGGCAACCG, which switch fluorescence ratio is on record?
The switch fluorescence ratio was 1.02 ± 0.065.

How did the switch fluorescence ratio turn out when TGGGCAGGCT was run?
Its switch fluorescence ratio is 0.998 ± 0.044.

TGGGCATATG was tested. Which switch fluorescence ratio did it give?
Its switch fluorescence ratio is 0.993 ± 0.014.

How did the switch fluorescence ratio turn out when TGGGCATTAT was run?
Its switch fluorescence ratio is 1.04 ± 0.07.

With TGGGCATTTT as the sequence, how does the switch fluorescence ratio read?
The switch fluorescence ratio was 0.987 ± 0.025.

With TGGGCCAGTG as the sequence, how does the switch fluorescence ratio read?
Its switch fluorescence ratio is 1.05 ± 0.014.

TGGGCCGCCC was tested. Which switch fluorescence ratio did it give?
Its switch fluorescence ratio is 1.07 ± 0.12.

With TGGGCCGGGT as the sequence, how does the switch fluorescence ratio read?
Its switch fluorescence ratio is 1.03 ± 0.055.

With TGGGCGAAAA as the sequence, how does the switch fluorescence ratio read?
Its switch fluorescence ratio is 0.974 ± 0.045.

How did the switch fluorescence ratio turn out when TGGGCGACCG was run?
Its switch fluorescence ratio is 0.99 ± 0.021.

Which switch fluorescence ratio does the source give for TGGGCGGGGT here?
The switch fluorescence ratio was 1.02 ± 0.031.

TGGGCGGGTT was tested. Which switch fluorescence ratio did it give?
Its switch fluorescence ratio is 0.989 ± 0.032.

TGGGCGGTGT was tested. Which switch fluorescence ratio did it give?
Its switch fluorescence ratio is 0.992 ± 0.037.

For TGGGCGTAAG, which switch fluorescence ratio is on record?
The switch fluorescence ratio was 1.02 ± 0.027.

How did the switch fluorescence ratio turn out when TGGGCGTCGG was run?
The switch fluorescence ratio was 0.999 ± 0.032.

For TGGGCTACTC, which switch fluorescence ratio is on record?
The switch fluorescence ratio was 1.1 ± 0.044.

For TGGGCTAGAT, which switch fluorescence ratio is on record?
The switch fluorescence ratio was 0.998 ± 0.053.

With TGGGCTGGTA as the sequence, how does the switch fluorescence ratio read?
The switch fluorescence ratio was 0.972 ± 0.025.

For TGGGCTTAGT, which switch fluorescence ratio is on record?
Its switch fluorescence ratio is 0.992 ± 0.012.

Which switch fluorescence ratio does the source give for TGGGGAAAGG here?
The switch fluorescence ratio was 0.978 ± 0.034.

For TGGGGAAAGT, which switch fluorescence ratio is on record?
The switch fluorescence ratio was 1.03 ± 0.036.

For TGGGGAACCT, which switch fluorescence ratio is on record?
The switch fluorescence ratio was 0.96 ± 0.032.

TGGGGAATAG was tested. Which switch fluorescence ratio did it give?
The switch fluorescence ratio was 1.04 ± 0.057.

For TGGGGACAAA, which switch fluorescence ratio is on record?
The switch fluorescence ratio was 0.986 ± 0.019.

TGGGGACGGA was tested. Which switch fluorescence ratio did it give?
Its switch fluorescence ratio is 1.02 ± 0.054.

TGGGGAGAGG was tested. Which switch fluorescence ratio did it give?
The switch fluorescence ratio was 1.02 ± 0.037.

How did the switch fluorescence ratio turn out when TGGGGAGCCT was run?
The switch fluorescence ratio was 1.03 ± 0.041.

How did the switch fluorescence ratio turn out when TGGGGAGGAA was run?
The switch fluorescence ratio was 1 ± 0.011.

Which switch fluorescence ratio does the source give for TGGGGATATG here?
Its switch fluorescence ratio is 0.997 ± 0.019.

How did the switch fluorescence ratio turn out when TGGGGATCCG was run?
Its switch fluorescence ratio is 1.016 ± 0.0095.

For TGGGGATCGC, which switch fluorescence ratio is on record?
Its switch fluorescence ratio is 0.983 ± 0.034.

For TGGGGATCTC, which switch fluorescence ratio is on record?
Its switch fluorescence ratio is 1.01 ± 0.024.

Which switch fluorescence ratio does the source give for TGGGGATGGA here?
Its switch fluorescence ratio is 0.998 ± 0.02.

How did the switch fluorescence ratio turn out when TGGGGATGTT was run?
Its switch fluorescence ratio is 1.01 ± 0.049.

With TGGGGATTCT as the sequence, how does the switch fluorescence ratio read?
Its switch fluorescence ratio is 0.976 ± 0.0054.

With TGGGGCAGGG as the sequence, how does the switch fluorescence ratio read?
Its switch fluorescence ratio is 1.44 ± 0.62.

With TGGGGCCGGG as the sequence, how does the switch fluorescence ratio read?
Its switch fluorescence ratio is 1.01 ± 0.016.

For TGGGGCGC, which switch fluorescence ratio is on record?
The switch fluorescence ratio was 1.01 ± 0.097.

TGGGGCGCAT was tested. Which switch fluorescence ratio did it give?
The switch fluorescence ratio was 1.09 ± 0.064.

How did the switch fluorescence ratio turn out when TGGGGCGCTG was run?
Its switch fluorescence ratio is 0.981 ± 0.011.

Which switch fluorescence ratio does the source give for TGGGGGAACG here?
Its switch fluorescence ratio is 0.984 ± 0.026.

TGGGGGACGA was tested. Which switch fluorescence ratio did it give?
Its switch fluorescence ratio is 0.954 ± 0.032.

TGGGGGAGAG was tested. Which switch fluorescence ratio did it give?
Its switch fluorescence ratio is 1.01 ± 0.03.

For TGGGGGAGCT, which switch fluorescence ratio is on record?
The switch fluorescence ratio was 1.05 ± 0.11.

With TGGGGGAGGA as the sequence, how does the switch fluorescence ratio read?
Its switch fluorescence ratio is 0.979 ± 0.02.

Which switch fluorescence ratio does the source give for TGGGGGATGT here?
The switch fluorescence ratio was 1.01 ± 0.013.

Which switch fluorescence ratio does the source give for TGGGGGATTC here?
The switch fluorescence ratio was 1.03 ± 0.067.

With TGGGGGCAGC as the sequence, how does the switch fluorescence ratio read?
The switch fluorescence ratio was 1.02 ± 0.025.

For TGGGGGCAGG, which switch fluorescence ratio is on record?
Its switch fluorescence ratio is 1.01 ± 0.047.

Which switch fluorescence ratio does the source give for TGGGGGCATA here?
Its switch fluorescence ratio is 1.09 ± 0.1.

Which switch fluorescence ratio does the source give for TGGGGGCATT here?
Its switch fluorescence ratio is 1.01 ± 0.033.

With TGGGGGCCCG as the sequence, how does the switch fluorescence ratio read?
Its switch fluorescence ratio is 0.995 ± 0.047.

With TGGGGGCCGT as the sequence, how does the switch fluorescence ratio read?
The switch fluorescence ratio was 1.02 ± 0.14.

For TGGGGGCGGG, which switch fluorescence ratio is on record?
Its switch fluorescence ratio is 1 ± 0.033.
